Laboratory results: article PMC5016158

Biological target: Lucy-Flag-rsstr3-TAS2R14-HSV (rat | human) (UniProt P30936)
Chain of UniProt P30936 (P30936 whole entry): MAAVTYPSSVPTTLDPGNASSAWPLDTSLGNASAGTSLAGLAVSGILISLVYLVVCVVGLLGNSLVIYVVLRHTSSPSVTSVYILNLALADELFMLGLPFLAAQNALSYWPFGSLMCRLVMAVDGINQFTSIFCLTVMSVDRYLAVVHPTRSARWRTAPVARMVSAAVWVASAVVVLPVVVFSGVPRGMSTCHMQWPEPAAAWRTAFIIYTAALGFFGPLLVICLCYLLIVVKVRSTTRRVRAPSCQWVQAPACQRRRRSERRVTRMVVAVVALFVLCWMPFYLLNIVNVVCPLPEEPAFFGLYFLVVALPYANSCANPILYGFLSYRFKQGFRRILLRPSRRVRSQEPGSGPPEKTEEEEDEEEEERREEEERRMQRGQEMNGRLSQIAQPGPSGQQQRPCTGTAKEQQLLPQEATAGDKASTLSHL

- impairment by ISO (10 uM) of the relaxation of HASM cells (endogenous receptors) to the TAS2R14 agonist FFA (100 uM), magnetic twisting cytometry: 50%
Substance: HA-β2AR (from UniProt P07550 1-413) (receptor)
